From US20090162366A1

Biological target: M2G peptide conjugated with BSA (influenza A virus, A/Puerto Rico/8/34 (H1N1))
Test: peptide-BSA ELISA (++ EC50<10^-9M; + 10^-9M<EC50<10^-8M)

mouse anti-M2 antibody 14C2
EC50: < 1 nM
